Source: article PMC6123721 (2018)

B1: 6D8 single-chain Fv (scFv) (scFv, V domains shown)
VH: QVQLQQSGDELVKPGASVKLSCTVSGFNIKDDFIHWMKQRPEQGLEWIGRIDPANGYTKYAPKFQDKATMTADTSSNTAYLQLSSLASEDAAVYYCATYGVAYWGQGTLVTVSA
VL: DIVLTQSPASLAVSLGQRATISCKASQSVDHDGDSYMNWFQQKPGQSPKLLIYAASNLESGIPARFSGSGSGTDFTLNIHPVEEEDAATYYCQQTNEDPYTFGGGTKLEIK

What was measured:
Test in all cases: ITC
[1] = target: B1
3D7-MSP2 = target: 3D7-MSP2
FC27-MSP2 = target: FC27-MSP2

## NAYNMSIRRSMANEGSNTNSV [FC27 MSP2 14-34 peptide (C-terminally extended epitope, FC27 allele)]
[1]
  Kd: 16 nM

## NAYNMSIRRSMAESKPSTGAG [3D7 MSP2 14-34 peptide (C-terminally extended epitope, 3D7 allele)]
[1]
  Kd: 64 nM

## B1
3D7-MSP2
  Kd: 61 nM
FC27-MSP2
  Kd: 13 nM

## NAYNMSIRR [MSP2 14-22 peptide (minimal 6D8 epitope of merozoite surface protein 2)]
[1]
  Kd: 6 nM
